Test results published in patent publication CN116333117A (LAITEKANG SUZHOU BIOPHARMACEUTICAL CO LTD, dated 2023).

What was measured:
HER3 = target: T1, HER3 (human, UniProt P21860 20-643, limits assumed); experiment: ELISA, coated HER3, antibody in 3-fold dilutions
T1 construct: also called ErbB3

[1] = target: T2, hEGFR/ECD-his (自制的C-末端具有his标签的人EGFR胞外域蛋白全长) (human, UniProt P00533 25-645); experiment: BLI (ForteBio Qke), antibody on Protein A probes, hEGFR in solution from 20 ug/mL in 1:2 dilutions
T2 construct: extracellular domain; Home-made antigen; also called hEGFR/EDC-his; hEGFR/EGFR-his; not shown: C-terminal his tag

[2] = target: T2, hEGFR/ECD-his …; experiment: ELISA, coated hEGFR/ECD-his 1 ug/mL, anti-hIgG Fc-HRP
HER4 = target: T3, HER4 (human, UniProt Q15303 26-649, limits assumed); experiment: ELISA, coated HER4, antibody in 3-fold dilutions
T3 construct: also called ErbB4
T3 sequence (looked up): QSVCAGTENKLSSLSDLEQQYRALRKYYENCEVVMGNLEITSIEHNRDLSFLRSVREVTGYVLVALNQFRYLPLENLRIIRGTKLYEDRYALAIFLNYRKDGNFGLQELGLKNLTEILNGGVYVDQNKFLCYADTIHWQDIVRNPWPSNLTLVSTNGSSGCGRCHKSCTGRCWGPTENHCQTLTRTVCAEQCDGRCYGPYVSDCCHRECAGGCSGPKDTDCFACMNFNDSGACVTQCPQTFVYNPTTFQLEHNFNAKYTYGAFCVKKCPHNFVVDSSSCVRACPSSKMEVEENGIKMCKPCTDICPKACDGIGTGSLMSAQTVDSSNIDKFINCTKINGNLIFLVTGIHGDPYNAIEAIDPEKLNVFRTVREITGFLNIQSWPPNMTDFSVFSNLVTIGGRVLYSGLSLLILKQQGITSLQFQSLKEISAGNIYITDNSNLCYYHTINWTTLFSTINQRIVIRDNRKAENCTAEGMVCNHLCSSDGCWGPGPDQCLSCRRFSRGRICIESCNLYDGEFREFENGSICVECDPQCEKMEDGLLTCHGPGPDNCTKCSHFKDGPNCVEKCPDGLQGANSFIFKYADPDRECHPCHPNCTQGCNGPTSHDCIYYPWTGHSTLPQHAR

HER2 = target: T4, HER2 (human, UniProt P04626 23-652, limits assumed); experiment: ELISA, coated HER2, antibody in 3-fold dilutions
T4 construct: also called ErbB2

T1 sequence (P21860 20-643 limits assumed): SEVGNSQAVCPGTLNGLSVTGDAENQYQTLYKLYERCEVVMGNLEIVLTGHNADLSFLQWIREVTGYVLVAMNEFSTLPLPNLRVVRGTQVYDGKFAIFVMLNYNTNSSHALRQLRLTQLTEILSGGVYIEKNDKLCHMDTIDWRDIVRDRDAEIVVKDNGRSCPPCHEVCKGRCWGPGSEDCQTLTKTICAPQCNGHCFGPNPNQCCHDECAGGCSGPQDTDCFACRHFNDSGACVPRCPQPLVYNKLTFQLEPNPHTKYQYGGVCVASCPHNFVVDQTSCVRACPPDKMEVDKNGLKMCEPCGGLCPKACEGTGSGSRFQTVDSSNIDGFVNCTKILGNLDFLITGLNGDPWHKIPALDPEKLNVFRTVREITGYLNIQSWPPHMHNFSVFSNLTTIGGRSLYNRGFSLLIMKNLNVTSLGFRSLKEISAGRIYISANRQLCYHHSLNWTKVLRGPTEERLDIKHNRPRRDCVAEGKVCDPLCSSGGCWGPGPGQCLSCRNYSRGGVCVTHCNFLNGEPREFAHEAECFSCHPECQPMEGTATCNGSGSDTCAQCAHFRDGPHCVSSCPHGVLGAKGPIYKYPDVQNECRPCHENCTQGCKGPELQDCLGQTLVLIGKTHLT

binding result (HER3): no binding (tested: 起始浓度为2μg/mL)
Kd [1]: ~2.03 nM
EC50 [2]: ~0.0199 µg/mL
binding result (HER4): no binding (tested: 起始浓度为2μg/mL)
binding result (HER2): no binding (tested: 起始浓度为2μg/mL)
B1: mouse anibody1129 (mAb1129) (antibody, V domains shown)
VH: DVMLVESGGGLVKPGGSLKLSCAASGFAFSNYDMSWVRQTPEKRLEWVAYISSGGDITYYLDTVKGRFTISRDNAKNTLYLQMSSLKSEDTAMYYCARSHYGYYGDTMDYWGQGTSVTVSS
VL: DVVMTQTPLSLPVSLGDQASISCRSSQSLVHSNGNTYLHWYLQKPGQSPKLLIYKVSNRFSGVPDRFSGSGSGTDFTLKISRVEAEDLGVYFCSQSTHVPPTFGGGTKLEIK
notes: also called 抗EGFR抗体mAb1129; 小鼠抗EGFR抗体; not shown: human kappa light chain constant region
